Results: the supplement of paper PMC10126150
± gives the standard deviation of the averaged measurements.

system: ATP; assay: switch fluorescence ratio, 500 uM ATP over buffer (Cy3 cluster intensity, sum of 5 cycles each) (fold (ratio)); higher = stronger signal-on switching upon ATP binding; sequences stand for … in TCGTCGGCAGCGTCAGATGTGTATAAGAGACAGTTTTTTTTTTTTTTTTTTTTTTTTT…TC; settings: aptamer strand: ATP DNA aptamer (quencher-CACCTGGGGGAGTATTGCGGAGGAAGG + anchor), 100 nM annealed; ATP concentration: 500 uM
In short: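 Cy3-labelled switching-strand clusters on a modified Illumina MiSeq flow-cell were annealed to 100 nM quencher-labelled ATP aptamer and imaged first in selection buffer, then after 15 min with 500 uM ATP at 22 °C. NaOH stripping and re-annealing separated each of five buffer/ATP cycles, and clusters outside 100-1000 RFU were excluded. The fluorescence ratio sums target-cycle Cy3 intensity over buffer-cycle Cy3 intensity per cluster and averages it per switch-domain sequence.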
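Further: ATP exposure 15 min at 22 °C before imaging.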

GGGGACGAGC and GATTAAGAGC are the same in switch fluorescence ratio: 0.999 ± 0.027 for the first, 0.999 ± 0.044 for the second.

Compared with ACTCGCCCCA, GGACGTAAGG is lower in switch fluorescence ratio: 1.46 ± 0.084 for the first, 0.977 ± 0.016 for the second.

TTAGCGTGCT and GATATAGGGG are within error of each other in switch fluorescence ratio: 0.994 ± 0.0073 for the first, 1 ± 0.034 for the second.

TTGAGTCCGT and AGCTTTATTT are within error of each other in switch fluorescence ratio: 1.05 ± 0.075 for the first, 1.06 ± 0.12 for the second.

Compared with AAAGGCGAGG, TTCGTGACCC is higher in switch fluorescence ratio: 0.957 ± 0.015 for the first, 1.019 ± 0.0043 for the second.

TGAGGCGCGG and TTCGATTTTT are within error of each other in switch fluorescence ratio: 0.97 ± 0.025 for the first, 0.981 ± 0.048 for the second.

First: GCTACAGCAT
Second: TATATGACGG
The switch fluorescence ratio of the first is higher: 1.06 ± 0.031 for the first, 0.997 ± 0.027 for the second.

GTGGTATGTC and TTGTTCAAGG are within error of each other in switch fluorescence ratio: 1.01 ± 0.07 for the first, 0.981 ± 0.015 for the second.

Going from GTTGTAGTCC to GCGGTTAAGG, the switch fluorescence ratio falls from 1.02 ± 0.022 to 0.9577 ± 0.006.

TGACGGGGTT and AGGGTTGGAA are within error of each other in switch fluorescence ratio: 0.992 ± 0.026 for the first, 0.967 ± 0.011 for the second.

TTTTGGGAAT and TTTTGGGTTT are within error of each other in switch fluorescence ratio: 1.04 ± 0.052 for the first, 1.02 ± 0.086 for the second.

Going from TGGGGGTATG to CGTGCTGGAC, the switch fluorescence ratio rises from 1 ± 0.02 to 1.091 ± 0.0065.

GTAGTCACGA and ATGGGCTTTG are within error of each other in switch fluorescence ratio: 1.01 ± 0.048 for the first, 0.9674 ± 0.0093 for the second.

Compared with ATAATATGTT, CTCTGAAGCT is higher in switch fluorescence ratio: 0.9911 ± 0.004 for the first, 1.06 ± 0.017 for the second.

AAAAAAAGCG and GGGGCATGGA are within error of each other in switch fluorescence ratio: 0.979 ± 0.058 for the first, 0.95 ± 0.018 for the second.

Compared with CCAATGTCTC, GGGGAAGCGG is lower in switch fluorescence ratio: 1.08 ± 0.013 for the first, 0.991 ± 0.056 for the second.

GGGGGTAGGA and GCACCAAAAG are within error of each other in switch fluorescence ratio: 1.02 ± 0.038 for the first, 0.973 ± 0.028 for the second.

TTTATAGTGT and TTAGTATCGG are within error of each other in switch fluorescence ratio: 0.9894 ± 0.0097 for the first, 0.999 ± 0.052 for the second.

First: TTTTTCCAAG
Second: ACCGATGCAC
The switch fluorescence ratio of the first is lower: 1.02 ± 0.011 for the first, 4.12 ± 1.2 for the second.

First: CCCATTGGGG
Second: GAGTTGAGAT
The switch fluorescence ratio of the first is higher: 1.03 ± 0.011 for the first, 0.9871 ± 0.007 for the second.

CGCGCGGTTT and TGGGGTTGCG are within error of each other in switch fluorescence ratio: 1.02 ± 0.041 for the first, 0.981 ± 0.032 for the second.

CGGTTTGGAG and GGGCTGAGGG are within error of each other in switch fluorescence ratio: 0.995 ± 0.056 for the first, 0.988 ± 0.029 for the second.

TGGGACATTT and GGTTTCTCGT are within error of each other in switch fluorescence ratio: 1.04 ± 0.057 for the first, 0.967 ± 0.04 for the second.

GGGAAGGCCA and GTTGGGGCCG are within error of each other in switch fluorescence ratio: 0.973 ± 0.024 for the first, 0.991 ± 0.0068 for the second.

GCCACATTCA and CAGGAAATGG are within error of each other in switch fluorescence ratio: 0.991 ± 0.017 for the first, 0.999 ± 0.017 for the second.

ATTTACTTGT and TCAAGTATGT are within error of each other in switch fluorescence ratio: 1.05 ± 0.094 for the first, 1.006 ± 0.01 for the second.

Compared with ACATTGAGGG, GTGGGCGGGG is lower in switch fluorescence ratio: 1.057 ± 0.0028 for the first, 0.979 ± 0.031 for the second.

First: CCTTCTGGGG
Second: GGCGTGGCGG
The switch fluorescence ratio of the first is higher: 1.12 ± 0.051 for the first, 0.994 ± 0.019 for the second.

TATGGTGACG and TTGCCGTGTT are within error of each other in switch fluorescence ratio: 1 ± 0.12 for the first, 1.02 ± 0.016 for the second.

TTGTCGTCAC and TAATGGTTTG are within error of each other in switch fluorescence ratio: 1.01 ± 0.037 for the first, 1.08 ± 0.12 for the second.

ATGCGAATCG and CGATGCTACA are within error of each other in switch fluorescence ratio: 0.99 ± 0.038 for the first, 1.06 ± 0.048 for the second.

TTGTTACGGT and AGTTACAGTC are within error of each other in switch fluorescence ratio: 0.981 ± 0.041 for the first, 1.05 ± 0.073 for the second.

TCGTTATGTC and GCATGAAGGT are the same in switch fluorescence ratio: 1 ± 0.032 for the first, 1 ± 0.014 for the second.

TTAGATGGAG and ACTTTGGCCC are within error of each other in switch fluorescence ratio: 0.984 ± 0.024 for the first, 1.005 ± 1.1e-05 for the second.

AGATTAATTT and GTAGGAATGT are within error of each other in switch fluorescence ratio: 0.986 ± 0.021 for the first, 1.03 ± 0.036 for the second.

GGATAGGACA and TTCTCCTTTT are within error of each other in switch fluorescence ratio: 1 ± 0.04 for the first, 1.01 ± 0.021 for the second.

AAGGTTTTTT and GAAAAGGGGG are within error of each other in switch fluorescence ratio: 1.01 ± 0.02 for the first, 0.992 ± 0.053 for the second.

TCGATAATTA and TGGCGGAAGG are within error of each other in switch fluorescence ratio: 0.97 ± 0.09 for the first, 0.999 ± 0.044 for the second.

Going from TTAAACAAGC to TGTTAGAATC, the switch fluorescence ratio falls from 0.998 ± 0.017 to 0.963 ± 0.012.

TTTTCGTATG and TCGTGATTGG are within error of each other in switch fluorescence ratio: 1 ± 0.053 for the first, 1.007 ± 0.0097 for the second.

ACACATAGGG and TTTGTGAGTA are within error of each other in switch fluorescence ratio: 0.9985 ± 0.0084 for the first, 1 ± 0.023 for the second.

AAAGTTGGAT and CCTAACCTCT are within error of each other in switch fluorescence ratio: 0.977 ± 0.012 for the first, 1.01 ± 0.032 for the second.

TGGATTTCGG and TTCATTTTGC are the same in switch fluorescence ratio: 1.016 ± 0.0065 for the first, 1.02 ± 0.015 for the second.

TTAGAAAGAA and TTCACCCTTT are within error of each other in switch fluorescence ratio: 0.976 ± 0.013 for the first, 1.02 ± 0.049 for the second.

TCACGTTGGA and TTTTCGATAG are within error of each other in switch fluorescence ratio: 1.01 ± 0.019 for the first, 1 ± 0.013 for the second.

Going from GGTCTCAGGT to AACTAGGGTG, the switch fluorescence ratio rises from 1.03 ± 0.023 to 1.12 ± 0.013.

GGATAAGAAT and TTTGTTGCCT are within error of each other in switch fluorescence ratio: 1.02 ± 0.052 for the first, 1.014 ± 0.0088 for the second.

Going from CTTTCCTATG to AATTTATGGG, the switch fluorescence ratio falls from 1.07 ± 0.019 to 0.986 ± 0.021.

First: TCCGTATATT
Second: AGTTATGCAC
The switch fluorescence ratio of the first is higher: 1.103 ± 0.0024 for the first, 1.024 ± 0.0083 for the second.

ATTTACGAT and TATTGGCGTC are within error of each other in switch fluorescence ratio: 1.02 ± 0.049 for the first, 0.985 ± 0.029 for the second.

Compared with TTATAATACT, TACCAGGGGT is lower in switch fluorescence ratio: 1.04 ± 0.019 for the first, 0.9909 ± 0.0039 for the second.

Compared with TTACGCAATT, GTTGGGAGTC is lower in switch fluorescence ratio: 4.42 ± 0.59 for the first, 1.01 ± 0.012 for the second.

GAATTCGGCT and AAAGTTTGAC are within error of each other in switch fluorescence ratio: 1.0193 ± 6.4e-05 for the first, 1 ± 0.035 for the second.

AGTTGCGTCC and TAATCTTTGG are within error of each other in switch fluorescence ratio: 1.01 ± 0.026 for the first, 0.961 ± 0.035 for the second.

Compared with CAGGTAGTTG, GACTAACGGA is higher in switch fluorescence ratio: 1.004 ± 0.0032 for the first, 1.19 ± 0.1 for the second.

First: CTAAGGGTTC
Second: GGGGAACGGT
The switch fluorescence ratio of the first is lower: 0.999 ± 0.015 for the first, 1.03 ± 0.012 for the second.

AATGTAATTA and ATTGAATTCT are within error of each other in switch fluorescence ratio: 1.01 ± 0.011 for the first, 1.02 ± 0.14 for the second.

Going from GAAAAAGGCC to GCATTTGTAC, the switch fluorescence ratio rises from 1.02 ± 0.011 to 1.266 ± 0.0026.

Compared with GGATTTTAGC, GATTTTGGCT is higher in switch fluorescence ratio: 0.9835 ± 0.0024 for the first, 0.9969 ± 0.0019 for the second.

CAGTGGGTGG and CTTGTAACTT are within error of each other in switch fluorescence ratio: 0.982 ± 0.027 for the first, 1.01 ± 0.032 for the second.

Compared with TGGGGCCGCG, AAAGCCGATG is lower in switch fluorescence ratio: 1.048 ± 0.0092 for the first, 1 ± 0.012 for the second.

First: CGTAGTAGAC
Second: TTACTACTTT
The switch fluorescence ratio of the first is higher: 2.61 ± 0.26 for the first, 1.04 ± 0.0099 for the second.

First: ATTGTGGGTT
Second: TTTACGGTAA
The switch fluorescence ratio of the first is lower: 1 ± 0.021 for the first, 1.15 ± 0.019 for the second.

TGGGAGGAGT and GGTTGATTAT are within error of each other in switch fluorescence ratio: 1 ± 0.048 for the first, 0.9793 ± 0.0065 for the second.

ATAGGAGTGC and CCAAGCTTGT are within error of each other in switch fluorescence ratio: 1.01 ± 0.023 for the first, 1 ± 0.041 for the second.

TGGATGACGC and GGTTGAGTGT are within error of each other in switch fluorescence ratio: 0.96 ± 0.12 for the first, 0.9836 ± 0.0046 for the second.

TTTCAAGGGT and ATTGAGAGCA are the same in switch fluorescence ratio: 0.9851 ± 0.0031 for the first, 0.985 ± 0.021 for the second.

CACGGGGTCC and AAAATCTGCG are within error of each other in switch fluorescence ratio: 1.06 ± 0.069 for the first, 1.03 ± 0.041 for the second.

Compared with ATTTGTTGAT, AATGTGGGTC is lower in switch fluorescence ratio: 1 ± 0.021 for the first, 0.9392 ± 0.006 for the second.

TTGGGAGCTT and CGAAGGTTAG are within error of each other in switch fluorescence ratio: 1.01 ± 0.048 for the first, 0.987 ± 0.024 for the second.

TGGGTTGGTT and ATGTTTTACG are within error of each other in switch fluorescence ratio: 1 ± 0.036 for the first, 0.988 ± 0.049 for the second.

GATTGGGTTG and GAAAGCGGTG are within error of each other in switch fluorescence ratio: 0.981 ± 0.045 for the first, 1.01 ± 0.015 for the second.

ATTATCACGA and GATTGAGCGT are within error of each other in switch fluorescence ratio: 0.989 ± 0.014 for the first, 0.996 ± 0.017 for the second.

AGTCCCAAGG and TTAAGCATAG are within error of each other in switch fluorescence ratio: 1.13 ± 0.2 for the first, 1.69 ± 0.91 for the second.

GGGGAAACGA and AGTCTGTCGT are within error of each other in switch fluorescence ratio: 0.9987 ± 0.0015 for the first, 0.98 ± 0.039 for the second.

Going from TCCGTGTGTG to GGTGTGTGTC, the switch fluorescence ratio rises from 0.989 ± 0.0075 to 1.02 ± 0.02.

ACGGGGGGGG and TGGGTTAGAT are within error of each other in switch fluorescence ratio: 1.02 ± 0.048 for the first, 0.976 ± 0.025 for the second.

Going from AGGGCTATGT to GGGGGCCCGA, the switch fluorescence ratio rises from 0.9804 ± 0.005 to 0.9925 ± 0.0076.

For ACAAGCGTTT, the switch fluorescence ratio was 1.01 ± 0.036.
